Legend:
[1] = molecular target: T1, mature c-MET (disulphide-linked α/β heterodimer) (Homo sapiens (A549), UniProt P08581); assay: co-IP; immunoprecipitation of endogenous c-MET from A549 lysates (Triton X-100 lysis buffer) with the LMH antibody; membranes blotted with mAb 25H2; conditions: one partner purified
T1 construct: c-MET α-chain, extracellular 50 kDa product of furin cleavage of the precursor; c-MET β-chain, extracellular/intracellular 145 kDa product of furin cleavage of the precursor, contains the TK domain; Detected in the immunoprecipitates by the 145 kDa β-chain band (mAb 25H2); also called mature receptor; source: endogenous, A549 lysate

[2] = molecular target: T2, c-MET on the surface of A549 lung cancer cells (Homo sapiens (A549), UniProt P08581); assay: flow cytometry on cells; A549 cells, 10 µg/ml of each LMH antibody in 1% HSA/PBS, 1 h at 4°C; anti-mouse IgG-PE secondary; conditions: one partner purified
T2 construct: c-MET, the receptor for hepatocyte growth factor/scatter factor, as expressed on cells; also called surface c-MET; c-MET receptor; source: endogenous, on A549 cells (U87MG cells in one down-regulation assay)
T2 sequence (P08581 25-1390): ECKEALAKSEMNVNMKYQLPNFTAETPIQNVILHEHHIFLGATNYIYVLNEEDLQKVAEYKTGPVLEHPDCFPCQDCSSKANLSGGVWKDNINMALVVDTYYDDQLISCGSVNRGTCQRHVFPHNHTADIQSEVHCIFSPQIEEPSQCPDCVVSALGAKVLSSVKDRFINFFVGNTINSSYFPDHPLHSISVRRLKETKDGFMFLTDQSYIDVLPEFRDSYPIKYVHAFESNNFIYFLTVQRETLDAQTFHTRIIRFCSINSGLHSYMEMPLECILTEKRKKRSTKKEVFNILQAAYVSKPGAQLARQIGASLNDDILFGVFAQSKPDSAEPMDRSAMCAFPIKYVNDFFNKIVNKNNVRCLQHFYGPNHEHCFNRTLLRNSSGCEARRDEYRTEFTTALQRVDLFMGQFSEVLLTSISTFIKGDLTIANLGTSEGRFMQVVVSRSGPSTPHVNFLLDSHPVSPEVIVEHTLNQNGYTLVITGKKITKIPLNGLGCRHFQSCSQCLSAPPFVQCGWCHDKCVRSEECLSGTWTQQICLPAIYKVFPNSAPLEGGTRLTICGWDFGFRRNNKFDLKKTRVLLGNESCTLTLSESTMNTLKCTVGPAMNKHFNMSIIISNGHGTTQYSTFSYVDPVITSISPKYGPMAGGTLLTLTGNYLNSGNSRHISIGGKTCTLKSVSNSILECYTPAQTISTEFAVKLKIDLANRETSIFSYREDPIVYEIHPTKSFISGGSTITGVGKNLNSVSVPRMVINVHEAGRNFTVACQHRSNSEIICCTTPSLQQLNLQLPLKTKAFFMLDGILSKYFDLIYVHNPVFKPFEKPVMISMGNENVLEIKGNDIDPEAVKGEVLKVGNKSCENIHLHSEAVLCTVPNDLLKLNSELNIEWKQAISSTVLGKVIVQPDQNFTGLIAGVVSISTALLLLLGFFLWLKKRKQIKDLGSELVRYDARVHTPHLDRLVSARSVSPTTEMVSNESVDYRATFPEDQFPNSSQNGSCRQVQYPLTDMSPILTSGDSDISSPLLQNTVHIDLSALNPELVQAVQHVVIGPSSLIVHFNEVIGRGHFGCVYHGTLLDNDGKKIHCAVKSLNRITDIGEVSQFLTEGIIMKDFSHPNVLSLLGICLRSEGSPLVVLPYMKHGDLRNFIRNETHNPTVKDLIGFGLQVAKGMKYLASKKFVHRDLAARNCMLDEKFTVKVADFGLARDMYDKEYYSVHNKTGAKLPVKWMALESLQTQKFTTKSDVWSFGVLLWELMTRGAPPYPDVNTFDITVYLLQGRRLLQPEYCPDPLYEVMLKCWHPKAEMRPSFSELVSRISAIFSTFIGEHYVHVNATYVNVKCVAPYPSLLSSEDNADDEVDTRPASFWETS

[3] = molecular target: T3, c-MET extracellular domain (Homo sapiens, UniProt P08581); assay: SPR; BIAcore; c-MET extracellular domain immobilized, different concentrations of purified LMH antibodies (intact IgG); conditions: both partners purified
T3 construct: c-MET extracellular domain; also called immobilized c-MET extracellular domain
T3 sequence (P08581 25-932): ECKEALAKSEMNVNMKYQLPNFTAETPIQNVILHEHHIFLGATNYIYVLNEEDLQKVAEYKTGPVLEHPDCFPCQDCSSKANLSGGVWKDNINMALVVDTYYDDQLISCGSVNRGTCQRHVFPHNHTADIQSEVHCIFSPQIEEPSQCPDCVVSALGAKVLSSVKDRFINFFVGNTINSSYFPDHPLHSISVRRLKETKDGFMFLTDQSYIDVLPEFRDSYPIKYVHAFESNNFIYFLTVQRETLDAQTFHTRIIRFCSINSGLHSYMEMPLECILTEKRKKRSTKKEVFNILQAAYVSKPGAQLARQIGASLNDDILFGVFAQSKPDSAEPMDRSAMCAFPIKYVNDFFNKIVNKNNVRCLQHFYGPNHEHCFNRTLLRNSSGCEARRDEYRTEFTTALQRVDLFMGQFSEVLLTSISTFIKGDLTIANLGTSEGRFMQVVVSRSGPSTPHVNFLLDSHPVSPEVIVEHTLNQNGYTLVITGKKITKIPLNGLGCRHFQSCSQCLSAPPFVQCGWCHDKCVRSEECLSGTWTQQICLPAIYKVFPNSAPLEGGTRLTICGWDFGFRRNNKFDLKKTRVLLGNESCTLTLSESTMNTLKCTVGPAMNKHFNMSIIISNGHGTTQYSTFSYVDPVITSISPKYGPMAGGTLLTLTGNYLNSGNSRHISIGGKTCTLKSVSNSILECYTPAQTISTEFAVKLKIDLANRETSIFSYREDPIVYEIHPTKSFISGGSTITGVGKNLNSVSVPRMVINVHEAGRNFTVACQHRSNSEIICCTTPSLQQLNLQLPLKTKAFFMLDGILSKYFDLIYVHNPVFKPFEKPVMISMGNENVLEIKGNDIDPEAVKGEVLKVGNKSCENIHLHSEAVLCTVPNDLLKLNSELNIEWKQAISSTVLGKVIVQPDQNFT

| binding result [1] | binding result [2] | Kd [3] [nM] | Binder |
| --- | --- | --- | --- |
| binds | binds |  | LMH 85 (antibody, V domains shown, VH domain; heavy chain constant region of a mouse IgG; VL domain; light chain constant region of a mouse antibody; Intact bivalent mouse monoclonal antibody, agonist of c-MET; also called LMH 85 antibody; mAb LMH 85; source: clonal supernatants in the screening ELISA; copies: 2 + 2) VH: QVQLQQSGAELAKPGASVKMSCKASGYTFIIYWIHWIKQRPGQGLEWIGYINPSNDYTEYNQKFKDKATLTADKSSNTAFMQLSSLTSEDSAVYYCARDSYDYDDGAYAMDYWGQGTSVTVSS VL: QIVLSQSPAILSASPGEKVTMTCRASSGVNYMHWYQQKPGSSPKPWIYATSNLASGVPARFSGSGSGTSYSLTISRVEAEDAATYYCQQWISHPFTFGSGTKLEIK |
|  |  | 2.6 | LMH 87 (antibody, V domains shown, VH domain; heavy chain constant region of a mouse IgG; VL (Vk) domain; light chain constant region of a mouse antibody (the methods call the variable segment Vk); Intact bivalent mouse monoclonal antibody; also called LMH 87 antibody; mAb LMH 87; source: clonal supernatants in the screening ELISA; copies: 2 + 2) VH: QVQLQQSGPELVKSGASVKMSCKASGNTLKDDHVHWVKQRPGQGLEWIGWIYPGGGRTRYNEKFKGKTTLTADKPSSTVNMLLSSLTSEDSAIYFCTNLVFDVWGAGTTVTVSS VL: DIVMTQAAPSVPVTPGESVSISCRSSKSLLHSNGNTYLYWFLQRPGQSPQVLIYRMSNLASGVPDRFSGSGSGTAFTLRIRRVEAEDVGVYYCMQNLEYPFTFGGGTKLEIK |
